These results are taken from PMC11432197 (International Journal of Molecular Sciences, 2024).

The target of the test is T1, recombinant mTOR kinase domain (amino acid 1363-2549) (UniProt P42345 1363-2549).
T1 construct: also called mTOR kinase domain protein; mTOR (in vitro); source: bought: Sigma-Aldrich (Cat #14-770)
The test is described as follows: co-IP; in vitro: ETV7 and mTOR incubated overnight at 4 °C in the presence or absence of Ndel-FRB and/or 120 aa-LBE; ETV7 IPs immunoblotted for mTOR, ETV7 and Flag. The following applies: both partners purified. (In general: In western blotting, separated proteins are transferred to a membrane and probed.)

T1 sequence (P42345 1363-2549): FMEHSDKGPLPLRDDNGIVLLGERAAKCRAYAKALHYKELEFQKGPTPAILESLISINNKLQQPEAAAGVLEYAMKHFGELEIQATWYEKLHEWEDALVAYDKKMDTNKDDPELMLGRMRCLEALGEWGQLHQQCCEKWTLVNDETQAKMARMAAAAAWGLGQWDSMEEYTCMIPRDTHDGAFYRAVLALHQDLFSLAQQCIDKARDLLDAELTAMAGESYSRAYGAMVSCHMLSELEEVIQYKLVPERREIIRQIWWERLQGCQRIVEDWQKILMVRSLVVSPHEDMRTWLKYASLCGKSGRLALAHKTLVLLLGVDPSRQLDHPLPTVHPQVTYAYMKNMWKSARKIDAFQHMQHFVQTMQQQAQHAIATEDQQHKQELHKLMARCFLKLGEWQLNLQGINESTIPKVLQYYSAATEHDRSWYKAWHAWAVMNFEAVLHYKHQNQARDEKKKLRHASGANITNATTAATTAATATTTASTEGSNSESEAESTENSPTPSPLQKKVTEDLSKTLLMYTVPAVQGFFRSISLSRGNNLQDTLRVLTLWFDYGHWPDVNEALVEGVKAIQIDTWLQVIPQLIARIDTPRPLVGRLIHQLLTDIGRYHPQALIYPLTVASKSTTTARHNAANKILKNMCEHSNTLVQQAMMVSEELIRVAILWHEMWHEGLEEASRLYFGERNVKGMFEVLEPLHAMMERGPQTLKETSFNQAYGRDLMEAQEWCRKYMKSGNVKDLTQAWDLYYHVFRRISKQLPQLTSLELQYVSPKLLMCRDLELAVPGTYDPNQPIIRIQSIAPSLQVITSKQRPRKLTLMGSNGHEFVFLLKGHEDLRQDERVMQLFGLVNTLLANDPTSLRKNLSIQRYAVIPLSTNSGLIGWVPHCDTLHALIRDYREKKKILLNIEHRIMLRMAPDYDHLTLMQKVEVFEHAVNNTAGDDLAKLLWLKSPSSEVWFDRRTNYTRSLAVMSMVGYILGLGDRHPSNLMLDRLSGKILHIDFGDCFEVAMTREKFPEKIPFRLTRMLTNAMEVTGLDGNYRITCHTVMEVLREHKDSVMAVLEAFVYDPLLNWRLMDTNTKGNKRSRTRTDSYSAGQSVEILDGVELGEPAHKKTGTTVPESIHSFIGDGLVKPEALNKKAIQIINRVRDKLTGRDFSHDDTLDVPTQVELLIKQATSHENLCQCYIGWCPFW

B1: ETV7 protein (recombinant) (natural protein)
chain: MQEGELAISPISPVAAMPPLGTHVQARCEAQINLLGEGGICKLPGRLRIQPALWSREDVLHWLRWAEQEYSLPCTAEHGFEMNGRALCILTKDDFRHRAPSSGDVLYELLQYIKTQRRALVCGPFFGGIFRLKTPTQHSPVPPEEVTGPSQMDTRRGHLLQPPDPGLTSNFGHLDDPGLARWTPGKEESLNLCHCAELGCRTQGVCSFPAMPQAPIDGRIADCRLLWDYVYQLLLDTRYEPYIKWEDKDAKIFRVVDPNGLARLWGNHKNRVNMTYEKMSRALRHYYKLNIIKKEPGQKLLFRFLKTPGKMVQDKHSHLEPLESQEQDRIEFKDKRPEISP
notes: ETV7, bought recombinant protein; also called ETV7 (in vitro); purified ETV7; source: bought: Origene (Cat #TP307742)
For B1, the binding result is “binds”.
